This is an account of results in patent US20250250330A1 (REVOPSIS THERAPEUTICS, published 2025).

Where “and” joins values, the source holds several entries; their conditions need not be identical. Equal values may be shown once. Bounds are passed on as bounds.

The target of experiment [1] is T1, rdANG-2 (canine/dog; Creative Biolab_Vang-3062Lsx) (Canine/Dog, UniProt A0A8J8 19-495, limits assumed).
T1 construct: also called Dog ANG-2
T1 sequence (looked up): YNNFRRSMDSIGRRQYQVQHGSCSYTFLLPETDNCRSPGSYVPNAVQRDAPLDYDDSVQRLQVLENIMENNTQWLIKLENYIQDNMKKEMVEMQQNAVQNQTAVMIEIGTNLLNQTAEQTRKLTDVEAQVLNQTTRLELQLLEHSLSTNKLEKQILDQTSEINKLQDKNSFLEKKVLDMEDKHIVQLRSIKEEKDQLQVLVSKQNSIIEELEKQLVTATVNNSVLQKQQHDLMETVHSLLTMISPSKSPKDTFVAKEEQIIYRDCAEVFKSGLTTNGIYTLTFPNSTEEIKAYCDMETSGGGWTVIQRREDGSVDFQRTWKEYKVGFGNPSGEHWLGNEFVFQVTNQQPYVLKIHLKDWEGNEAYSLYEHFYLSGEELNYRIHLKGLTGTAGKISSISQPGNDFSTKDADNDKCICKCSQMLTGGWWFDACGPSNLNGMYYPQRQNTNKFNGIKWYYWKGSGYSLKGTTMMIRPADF
In words: ELISA on coated dog ANG-2. On the technique in general: In an ELISA, binding on a coated surface is turned into a signal by an enzyme label.

Experiment [2] concerns the target T2, rpVEGF164 (porcine/pig; AssayGenie_KPRT0149) (Porcine/Pig, UniProt P49151 27-190).
T2 construct: Bought protein; also called Pig VEGF-A
T2 sequence (looked up): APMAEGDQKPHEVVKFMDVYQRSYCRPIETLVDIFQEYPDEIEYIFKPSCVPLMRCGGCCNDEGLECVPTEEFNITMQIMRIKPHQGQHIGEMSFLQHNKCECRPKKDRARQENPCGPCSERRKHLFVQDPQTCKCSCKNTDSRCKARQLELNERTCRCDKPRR
In words: ELISA on coated pig VEGF-A.

For experiment [3], the target named is T3, rrANG-2 (rabbit; Speed Biosystems_YCP8015) (Rabbit, UniProt G1T9B3 19-496).
T3 construct: Bought protein; also called Rabbit ANG-2
T3 sequence: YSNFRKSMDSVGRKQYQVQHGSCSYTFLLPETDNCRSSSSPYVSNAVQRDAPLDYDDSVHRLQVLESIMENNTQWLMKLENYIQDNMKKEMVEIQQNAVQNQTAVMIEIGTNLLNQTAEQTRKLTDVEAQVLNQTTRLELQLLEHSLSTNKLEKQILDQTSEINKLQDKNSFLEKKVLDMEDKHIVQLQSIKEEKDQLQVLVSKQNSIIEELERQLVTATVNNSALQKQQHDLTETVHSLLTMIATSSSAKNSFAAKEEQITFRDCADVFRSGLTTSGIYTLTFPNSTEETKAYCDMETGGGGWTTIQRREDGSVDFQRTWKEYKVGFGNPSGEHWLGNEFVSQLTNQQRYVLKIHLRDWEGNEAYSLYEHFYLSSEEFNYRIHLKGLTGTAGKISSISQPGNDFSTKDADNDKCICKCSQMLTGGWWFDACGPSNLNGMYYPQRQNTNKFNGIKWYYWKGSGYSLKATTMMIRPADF
In words: ELISA on coated rabbit ANG-2.

The target of experiment [4] is T4, Recombinant human VEGF165 (Peprotech, Cat #100-20) (human, UniProt P15692-4 27-191).
T4 construct: Bought protein; also called rhVEGF165; rh VEGF165
The experiment is described as follows: ELISA; rhVEGF165 coated, anti-human IgG Fc-HRP detection. An excerpt:
The binding was detected by HRP-conjugated donkey anti-human IgG Fcγ antibody (Jackson ImmunoResearch Laboratories, Cat #709-035-098).

The target in experiment [5] is T5, Recombinant human VEGF121 (Peprotech, Cat #100-20A) (human, UniProt P15692-9 27-147).
T5 construct: Bought protein; also called rhVEGF121; rh VEGF121
T5 sequence (looked up): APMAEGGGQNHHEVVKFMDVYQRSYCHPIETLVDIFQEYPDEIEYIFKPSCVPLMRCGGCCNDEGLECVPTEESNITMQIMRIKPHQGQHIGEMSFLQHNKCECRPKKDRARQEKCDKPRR
The experiment is described as follows: ELISA; rhVEGF121 coated, anti-human IgG Fc-HRP detection. On the procedure:
Donkey anti-human IgG Fcγ-HRP was used for detection (Jackson ImmunoResearch Laboratories, Cat #709-035-098) and visualized by TMB substrate. OD450 nm readings were measured by Victor 3 (PerkinElmer 1420 Multilabel Counter).

The target in experiment [6] is T6, rhVEGF-B_Peprotech (Peprotech_100-20B) (human, UniProt P49765-2 22-188).
T6 construct: Bought protein
T6 sequence (looked up): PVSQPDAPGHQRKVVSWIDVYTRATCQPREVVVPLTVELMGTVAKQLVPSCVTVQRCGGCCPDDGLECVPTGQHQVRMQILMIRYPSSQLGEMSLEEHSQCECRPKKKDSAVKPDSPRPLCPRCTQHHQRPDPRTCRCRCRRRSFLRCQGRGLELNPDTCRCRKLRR
In words: ELISA; target coated at 1 ug/mL, anti-human IgG Fc-HRP detection. On the procedure: (§1) First, the binding to rhVEGF-B was tested in comparison with rhVEGF₁₆₅. rhVEGF-B or rhVEGF₁₆₅ was used to coat Corning 9017 medium binding plates at 1 μg/mL and […] per well. […] Donkey anti-human IgG Fcγ-HRP was used for detection. OD450 nm readings were measured by Victor 3.

For experiment [7], the target named is T7, rhVEGF-B_AcroBio (AcroBio_VE6-H5225) (human, UniProt P49765 22-207).
T7 construct: Bought protein; not shown: His tag
T7 sequence (looked up): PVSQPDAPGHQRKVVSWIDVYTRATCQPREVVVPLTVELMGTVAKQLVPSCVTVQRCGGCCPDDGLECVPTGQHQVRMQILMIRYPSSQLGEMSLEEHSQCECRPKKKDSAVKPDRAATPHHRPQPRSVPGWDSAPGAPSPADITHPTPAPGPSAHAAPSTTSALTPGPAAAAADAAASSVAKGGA
The experiment is described as above. On the procedure:
as §1

For experiment [8], the target named is T8, rhVEGF-D (AcroBio_VED-H5228) (human, UniProt O43915 89-205, limits assumed).
T8 construct: domain: PDGF domain; Bought protein; not shown: His tag
T8 sequence (looked up): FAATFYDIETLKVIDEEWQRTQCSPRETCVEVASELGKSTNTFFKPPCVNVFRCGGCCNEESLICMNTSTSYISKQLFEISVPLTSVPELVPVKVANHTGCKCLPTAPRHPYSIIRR
In words: ELISA: rhVEGF-D_AcroBio coated at 1 ug/mL, RO-101_Sample 1 titrated, detected with anti-human IgG Fc-gamma-HRP. The protocol:
Different target proteins were used to coat Corning 9017 medium binding plates at 1 μg/mL and 100 μl per well. Donkey anti-human IgG Fcγ-HRP was used for detection. OD450 nm readings were measured by Victor 3.

For orientation: EC50 means the midpoint of the concentration-response curve.

B1: RO-101 VEGF/ANG-2 bispecific surrobody (bispecific antibody, human IgG1, L234A L235A)
heavy 1: not shown
heavy 2: EVQLVESGGGLVKPGGSLRLSCAASGFTFSSYGMHWVRQAPGKGLEWVAGISADSGDKNYADSVKGRFTISRDNAKNSLYLQMNSLRAEDTAVYYCAKEFISWIYTFDYLDYWGQGTLVTVSSASTKGPSVFPLAPSSKSTSGGTAALGCLVKDYFPEPVTVSWNSGALTSGVHTFPAVLQSSGLYSLSSVVTVPSSSLGTQTYICNVNHKPSNTKVDKKVEPKSCDKTHTCPPCPAPEAAGGPSVFLFPPKPKDTLMISRTPEVTCVVVDVSHEDPEVKFNWYVDGVEVHNAKTKPREEQYNSTYRVVSVLTVLHQDWLNGKEYKCKVSNKALPAPIEKTISKAKGQPREPQVCTLPPSRDELTKNQVSLSCAVKGFYPSDIAVEWESNGQPENNYKTTPPVLDSDGSFFLVSKLTVDKSRWQQGNVFSCSVMHEALHNHYTQKSLSLSPG
light: QPVLHQPPAMSSALGTTIRLTCTLRNDHDIGVYSVYWYQQRPGHPPRFLLRYFSQSDKSQGPQVPPRFSGSKDVARNRGYLSISELQPEDEAMYYCAMGARSSVTHVFGSGTQLTVLSQPKATPSVTLFPPSSEELQANKATLVCLMNDFYPGILTVTWKADGTPITQGVEMTTPSKQSNNKYAASSYLSLTPEQWRSRRSYSCQVMHEGSTVEKTVAPAECS
notes: Format SgG1; also called Sample 1
As for B1, the EC50 is 0.0135 nM in experiment [1]; 0.0198 nM in experiment [2]; 0.011 nM in experiment [3]; 0.0401 nM and 0.0556 nM and 0.0417 nM in experiment [4]; 0.0086 nM in experiment [5]; above 100 nM in experiment [6]. In addition, the EC50 in experiment [7] is above 100 nM. Besides, the binding result in experiment [8] is on record as “no binding (tested: 100 nM (Log(nM) 2))”.
